Experimental data: article PMC10522485
pKd: −log10 of the molar value.

target: CLIP102-120 labeled with FITC (human); assay: fluorescence polarisation; equilibrium; empty DR from bacterial expression varied from 4 µM to 7.8125 nM (2-fold dilutions), CLIP-FITC fixed at 100 nM

Substance | pKd
empty HLA-DR DRA*01:01(N62A)/DRB1*01:01 from bacterial expression (complex) | 5.95
empty HLA-DR DRA*01:01/DRB1*01:01(R71A) from bacterial expression (complex) | 5.87
empty HLA-DR DRA*01:01/DRB1*01:02(R71A) from bacterial expression (complex) | 6.29

Second part, the substance after the results:

pKd | Substance
6.29 | empty HLA-DR DRA*01:01(N62A)/DRB1*01:02 from bacterial expression (complex)
6.38 | empty HLA-DR DRA*01:01/DRB1*01:01 from bacterial expression (complex)
6.49 | empty HLA-DR DRA*01:01/DRB1*01:02 from bacterial expression (complex)

target: CLIP102-120 labeled with FITC (human); assay: fluorescence polarisation; dissociation of 100 nM DR/CLIP-FITC complexes with 20 µM unlabeled CLIP102-120 as competitor, no DM (intrinsic off-rate), 37 °C, phosphate/citrate buffer pH 5.2

Substance | koff [s⁻¹]
HLA-DR DRA*01:01/DRB1*01:02, insect cell-expressed (complex) | 2.45e-05
HLA-DR DRA*01:01/DRB1*04:04, insect cell-expressed (complex) | 3.22e-05
HLA-DR DRA*01:01/DRB1*07:01, insect cell-expressed (complex) | 3.25e-05
HLA-DR DRA*01:01/DRB1*08:01, insect cell-expressed (complex) | 6.88e-05
HLA-DR DRA*01:01/DRB1*08:02, insect cell-expressed (complex) | 1.01e-05
HLA-DR DRA*01:01/DRB1*13:02, insect cell-expressed (complex) | 0.000148

The next lines start with the values.

koff [s⁻¹] | Substance
1.06e-05 | HLA-DR DRA*01:01/DRB1*01:01, insect cell-expressed (complex)
0.000317 | HLA-DR DRA*01:01/DRB1*03:01, insect cell-expressed (complex)
4.23e-05 | HLA-DR DRA*01:01/DRB1*04:01, insect cell-expressed (complex)
7.9e-05 | HLA-DR DRA*01:01/DRB1*13:01, insect cell-expressed (complex)
6.27e-05 | HLA-DR DRA*01:01/DRB1*14:01, insect cell-expressed (complex)
0.000223 | HLA-DR DRA*01:01/DRB1*15:01, insect cell-expressed (complex)
